From the supplement of paper PMC9170038

System: MS2 coat protein
Assay: apparent KD of MS2 coat protein; designed switch direction (-1 OFF switch, 1 ON switch): -1; higher = weaker reporter binding
How it was run: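 Three titration conditions were used: no input, 200 uM small-molecule ligand, and an oligonucleotide input. In each, SNAP-549-labelled MS2 coat protein was raised from 0.7 or 1.5 nM, doubling, to 3 µM over designed RNA switches transcribed on Illumina chips by stalled E. coli RNA polymerase. Curve fits of normalised cluster fluorescence gave values whose per-design median over clusters is the apparent KD.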

[1] = input ligand: microRNA oligo, concentration not stated
[2] = Eterna round: R95, input ligand: microRNA oligo, concentration not stated
[3] = Eterna round: R95, input ligand: FMN 200 uM
[4] = Eterna round: R95, input ligand: none

Sequence	apparent KD of MS2 coat protein (input ligand: FMN 200 uM) [nM]	apparent KD of MS2 coat protein [1] [nM]	apparent KD of MS2 coat protein (input ligand: none) [nM]	apparent KD of MS2 coat protein [2] [nM]	other results
AUGCUCCGUGUAGGAUAUCGCCGUACUACUCGGCGAGAAGGACAUGAGGAUCACCCAUGUAUGUUAUUAUCACGUGUGGCGCGC [Design 49] (Eterna round: R96, puzzle: Exclusion NG 1)	45.7	14	19.7	–	–
GGUGCGUUUGUGAGGAUAUGCUGGUCCUUGGCUCAGCAGAAGGCACAUGAGGAUCACCCAUGUGGUGUCGUACC [salish99_Bmod_Ex4_033] (puzzle: Brourd's mod of Exclusion 4)	–	–	–	239	–
CCUCUACAUGAGGAUCACCCAUGUGAGGAUAUCUCGGAGCAACCACUUAAGGCGCUCCAGAGAAGGCACGUGUA [Erralaqu] (puzzle: Exclusion 1)	–	–	–	19.5	–
GUCCUGGACUAUCACAAGCACAUGAGGAUCACCCAUGUCAUGGGUAGAUUUAUAAAUAAAGAUACUGCUCGUCUUAU [Cac Sensor turn off var1 sub7] (Eterna round: R97, puzzle: Sensor, turn-off variant 1)	197	–	252	–	–
CGCCUCAGCACAUGAGGAUCACCCAUGUACAAAAGUCCCAGGGAGGAUAUCUGCUGGUUGACUAGAGAGAAGGCCCAUACUAAC [Eternabot solution 45] (Eterna round: R96, puzzle: Exclusion NG 3)	42.6	36.6	45	–	–
GGUGCGUUUGUGAGGAUAUGCUGGUCCUUGGAUCAGCAGAAGGCACAUGAGGAUCACCCAUGUGGUGUCCGUCC [salish99_Bmod_Ex4_039] (puzzle: Brourd's mod of Exclusion 4)	–	–	–	180	–
AGCUCACAUGAGGAUCACCCAUGUCAGGAUAUCGACUGAACAGCUUCGGCUGUUCAGUCGAGAAGGGACAAUUA [Brourdxlusion 5 - Jieux - Exclusion 1] (Eterna round: R97, puzzle: Exclusion 1)	182	–	59.7	–	–
UGAUCAGACCGAGGAUAUACAGGGAGCACGCACGUGAGUGCGUGCACUACAUGAGGAUCACCCAUGUAGAAGGCGGUCUGAUCU [JL ENG2 1.00] (Eterna round: R96, puzzle: Exclusion NG 2)	268	16.1	19.3	–	–
AUAAUUUAAGGAUAUACGUGGCGAGCCAGAUAGCUGGGUCUACAUGAGGAUCACCCAUGUAGAAGGUAAGGAUU [Eternabot (L1) Solution 23] (Eterna round: R97, puzzle: Exclusion 2)	17.8	–	18.6	–	–
CAAGCUAUUGUAGCAACUAACAUGAGGAUCACCCAUGUAGGCAUAACUUACCUAGCUCGUUUAUACAAAUCAAUUGU [Eternabot (L2) Solution 11] (Eterna round: R97, puzzle: Sensor, turn-off variant 1)	13.1	–	17.6	–	–
UUAAAUCAUGUAGGAUAUGCGUGGAGAAACUAUGCAGAAGGACAUGAGGAUCACCCAUGUGCUUCCGUCUGAGAACAGACGGUA [Mat - Exclusion NG 1 - Mod of JL - D14] (Eterna round: R96, puzzle: Exclusion NG 1)	285	43.2	57.9	–	–
UUCGUGCAGCUUUGCUGUACGCGUACAUGAGGAUCACCCAUGUAGGAUAUGGUAGGCUUUGCUUACUAGAAGGAUAUAGUGAUC [JL EXNG3 1.31] (Eterna round: R96, puzzle: Exclusion NG 3)	–	138	–	–	–
GUAGAGUCAGGAUAUACGAGAUCGAAAGAUCGGCGAUCCAUACAUGAGGAUCACCCAUGUAGAAGGGACUCUAC [ChP 11-04-2015 #5] (Eterna round: R96, puzzle: Exclusion 2)	177	14.8	19.1	–	–
AAAAGUUUGGAGGAUAUCCAUCCAAACGGAUAAGGAGAAGGCCGGACAUGAGGAUCACCCAUGUGAUUAGGUUA [Isradiri] (puzzle: Exclusion 6)	–	–	–	13.4	–
UGAGUGCUGCGAGGAUAUACAUGAGGAUCACCCAUGUAAAAGUGUGAGGCUUUGCCUCACACUAUGUAGAAGGCGCAGUACUCU [JL ENG2 1.04] (Eterna round: R96, puzzle: Exclusion NG 2)	17.6	10.6	13.6	–	–
CGAAGUAGAAACCGAUCCUACAUGAGGAUCACCCAUGUAGCAAGACGUGCACGCGAAGCUCGUCAGACUACCAGAAC [salish99_TOv1_r3_013] (puzzle: Sensor v3, turn-off variant 1)	–	–	–	332	apparent KD of MS2 coat protein [3]: 312 nM; apparent KD of MS2 coat protein [4]: 420 nM
CAGCUGAAUGUGAGGAUAUGUCGAGCUGCGGCUCGAUAGAAGGCACAUGAGGAUCACCCAUGUCUCAACAGCUG [BmEx4/2-C3] (Eterna round: R97, puzzle: Brourd's mod of Exclusion 4)	215	–	31.2	–	–
GAAAAGGCAGAGGAUAUUUCAGGUCAAAGCUGCAAAGAAGGCUGCACAUGAGGAUCACCCAUGUGGUCUUAAAA [Mod of Quesina 6 - Jieux - Exclusion 6] (Eterna round: R97, puzzle: Exclusion 6)	150	–	22.6	–	–

Sequence	apparent KD of MS2 coat protein (input ligand: FMN 200 uM) [nM]	apparent KD of MS2 coat protein [1] [nM]	apparent KD of MS2 coat protein (input ligand: none) [nM]	apparent KD of MS2 coat protein [2] [nM]	other results
UAAAUGUGAGGAUAUCAGGUGUGCUAGAGAACUGGUACAUCUGAGAAGGCACAUGAGGAUCACCCAUGUUCUUC [Mat - Exclusion 4 - Mod of JL - D56] (puzzle: Exclusion 4)	–	–	–	38.3	–
CAUCCACAUGAGGAUCACCCAUGUCAGGAUAUCUAUCAUAGCAUCGAAAGAUGCGGGUAGAGAAGGGACAAACC [ChP Ext 10-04-2015 #9] (puzzle: Exclusion 1)	–	–	–	12.4	–
GGUGGACAUGAGGAUCACCCAUGUGAGGAUAUCGGCUAUCUACUCGCUGACGGUUGCUCGAGAAGGCACAUUGU [Exclusion 1 V92] (puzzle: Exclusion 1)	–	–	–	90.9	–
ACAAGCUUAUUGCUCGGGUACAUGAGGAUCACCCAUGUUUGUGAUUAUAGAGAUUGUGUUGACGUGCGCUGCAGGUU [JR_SV3TOV1_Sub078] (puzzle: Sensor v3, turn-off variant 1)	–	–	–	37.9	apparent KD of MS2 coat protein [3]: 61.1 nM; apparent KD of MS2 coat protein [4]: 77 nM
CAGACACAUGAGGAUCACCCAUGUGAGGAUAUGCGUACGUUGUCCGUAGGCGACGUGCGCAGAAGGCGCAUUGG [JL-ex1-3.12 Eli mod] (puzzle: Exclusion 1)	–	–	–	90.3	–
ACAUGUCAUUGAGGAUAUCGCACACAUGAGGAUCACCCAUGUAAACGGAUGCUCAUUAGUGGGUUCGAGAAGGCGAUGUACAUU [Ex NG2 #99] (Eterna round: R96, puzzle: Exclusion NG 2)	64.7	72.9	68.5	–	–
GGUUAUUGCAAGGAUAUGCUUUUUUUUGAAAUUGCAGAAGGUGCAACAUGAGGAUCACCCAUGUUGGAUGGGUU [JR_E6_Sub018] (puzzle: Exclusion 6)	–	–	–	106	–
UGACACACCUGAGGAUAUUCUGAACGUUUCCCAGAAGAAGGUAGGUACAGCGGGAGCGCCACAUGAGGAUCACCCAUGUCUACC [Eternabot solution 46] (Eterna round: R96, puzzle: Exclusion NG 1)	126	103	142	–	–
UUGGAGAUAGGAUAUACGAGGAGAGUUGAGGGAACGCGAUGACAUGAGGAUCACCCAUGUAGAAGGAUCAGGAG [JR_Exclu2_Sub070] (puzzle: Exclusion 2)	–	–	–	36	apparent KD of MS2 coat protein [3]: 28.2 nM; apparent KD of MS2 coat protein [4]: 40.3 nM
UGCAGACGAGGAUAUGAUAAAGAUCACAUGAGGAUCACCCAUGUACGCAGGAUACUGCGAUCAGAAGGCGUCUGCA [E5/1-A3] (Eterna round: R97, puzzle: Exclusion 5)	16.3	–	13	–	–
UCUAGUUGGUAAGGAUAUCCUACAUUGUUCUGGCCCGGGCAUGCUACAUGAGGAUCACCCAUGUGGGAGAAGGUGCGUCAUUGC [Design 21] (Eterna round: R96, puzzle: Exclusion NG 2)	44.6	32.2	61.9	–	–
CUUAAACAUGAGGAUCACCCAUGUCAGGAUAUGAUACUAUGUACUUCGGUACAUAGUAUCAGAAGGGAUAUAAA [Ex1-3: 65] (puzzle: Exclusion 1)	–	–	–	39.3	–
UUUGUACAUGAGGAUCACCCAUGUUAGGAUAUCUCGCCGUCGGCUUGCCGACGGUAUUAGAGAAGGGACAAGGG [JL Tixe mod 8] (puzzle: Exclusion 1)	–	–	–	94.2	–
ACGUGAUAUCUGUCGGUGGACAUGAGGAUCACCCAUGUAAGCUUUUUGCUCGUCUUAUAACCCGGUGACAGACCUUC [Tixeed] (puzzle: Sensor v3, turn-off variant 1)	–	–	–	268	apparent KD of MS2 coat protein [3]: 33.7 nM; apparent KD of MS2 coat protein [4]: 37.3 nM
AUAUAAAUAUAGGAUAUCGAAUUUAUUAAUUAUCGAGAAGGAUAAACAUGAGGAUCACCCAUGUGGUAUCAUGG [Mat - Exclusion 6 - JL Mod - D40] (puzzle: Exclusion 6)	–	–	–	270	–
GAACUAAGGCAAAGCUUUAGUCGUACAUGAGGAUCACCCAUGUAGGAUAUGGUAGGCAAAGCAUACCAGAAGGACAGAGUGAUC [Mat - Exclusion NG 3 - Mod of JL - D62] (Eterna round: R96, puzzle: Exclusion NG 3)	387	363	220	–	–
ACAUGUUAUCCAUGAUAUCACAUGAGGAUCACCCAUGUUAAGGCGAUUUUGAGGUGUAAGCUUUGUGCUCGACUUAU [JR_STOV1_Sub055] (Eterna round: R97, puzzle: Sensor, turn-off variant 1)	107	–	78.8	–	–
